Test results reported in the Human Domainome abundance scans (Beltran et al. 2025).
± gives the uncertainty stated by the source.

B1: Homeobox protein SIX6, residues 134 to 184; numbered along this chain, O95475 (parent)
chain: CFKERTRHLLREWYLQDPYPNPSKKRELAQATGLTPTQVGNWFKNRRQRDR

Variants of: B1
Assay: abundance fitness (aPCA) (normalised: wild type 0, dead -1); higher = more abundant; growth selection in yeast, the domain comes from the species named
Details: Homo sapiens

Variant	abundance fitness
CFKERTRHLLREWYLQDPYPNPSKKRELAQATGLTPIQVGNWFKNRRQRDR [T37I]	-0.1 ± 0.11
CFKERKRHLLREWYLQDPYPNPSKKRELAQATGLTPTQVGNWFKNRRQRDR [T6K]	-0.368 ± 0.084
CFKERNRHLLREWYLQDPYPNPSKKRELAQATGLTPTQVGNWFKNRRQRDR [T6N]	-0.498 ± 0.26
CFKERERHLLREWYLQDPYPNPSKKRELAQATGLTPTQVGNWFKNRRQRDR [T6E]	-0.619 ± 0.12
CFKERTRHLLREWYLQDPYPNPSKKREYAQATGLTPTQVGNWFKNRRQRDR [L28Y]	-0.124 ± 0.13
CFKERTRHLLREWYLQDPYPNPSKKREWAQATGLTPTQVGNWFKNRRQRDR [L28W]	-0.788 ± 0.15
CFKERTRHLLREWYLQDPYANPSKKRELAQATGLTPTQVGNWFKNRRQRDR [P20A]	-0.816 ± 0.073
CFKERTRHLLREWYLQDPYSNPSKKRELAQATGLTPTQVGNWFKNRRQRDR [P20S]	-0.724 ± 0.17
CFKERTRHLLREWYLQDPYENPSKKRELAQATGLTPTQVGNWFKNRRQRDR [P20E]	-0.969 ± 0.25
CFKERTRHLLREWYLQDPYKNPSKKRELAQATGLTPTQVGNWFKNRRQRDR [P20K]	-0.797 ± 0.31
CFKERTRHLLREWYLQDPYPNPSKKRELAQATALTPTQVGNWFKNRRQRDR [G33A]	-0.712 ± 0.059
CFKERTRHLLREWYLQDPYPNPSKKRELAQATRLTPTQVGNWFKNRRQRDR [G33R]	-0.738 ± 0.051
CFKERTRHLLREWYLQDPYPNPSKKRELAQATKLTPTQVGNWFKNRRQRDR [G33K]	-0.679 ± 0.072
CFKERTRHLLREWYLQDPYPNPSKKRELAQATGLTPTQVGNWFKNRRGRDR [Q48G]	-0.237 ± 0.047
CFKERTRSLLREWYLQDPYPNPSKKRELAQATGLTPTQVGNWFKNRRQRDR [H8S]	0.135 ± 0.033
CFKERTRHLLREWYLQQPYPNPSKKRELAQATGLTPTQVGNWFKNRRQRDR [D17Q]	-0.678 ± 0.11
CFKERTRHLLREWYLQPPYPNPSKKRELAQATGLTPTQVGNWFKNRRQRDR [D17P]	-0.852 ± 0.06
CFKERTRHLLREWYLQAPYPNPSKKRELAQATGLTPTQVGNWFKNRRQRDR [D17A]	-0.998 ± 0.081
CFKERTRHLLREWPLQDPYPNPSKKRELAQATGLTPTQVGNWFKNRRQRDR [Y14P]	-0.983 ± 0.14
CFKERTRHLLREWGLQDPYPNPSKKRELAQATGLTPTQVGNWFKNRRQRDR [Y14G]	-0.571 ± 0.072
CFKERTRHLLREWHLQDPYPNPSKKRELAQATGLTPTQVGNWFKNRRQRDR [Y14H]	-0.974 ± 0.23
CFKERTRHLLREWYLQDPYPNPSKKRELAQNTGLTPTQVGNWFKNRRQRDR [A31N]	-0.098 ± 0.1
CFKERTRHLLREWYLQDPYPNPSKKRELAQSTGLTPTQVGNWFKNRRQRDR [A31S]	-0.292 ± 0.081
CFKERTRHLLREWYLQDPYPNPSKKRELAQQTGLTPTQVGNWFKNRRQRDR [A31Q]	-0.001 ± 0.09
CNKERTRHLLREWYLQDPYPNPSKKRELAQATGLTPTQVGNWFKNRRQRDR [F2N]	0.333 ± 0.36
CFKERTRHLLREWYLQDPYPNPSKKRELAQATGLTPTQVGNWFKNRLQRDR [R47L]	-0.633 ± 0.07

Variant	abundance fitness
CFKERTRHLLREWYLQDPYPNPSKKRELAQATGLTPTQVGNWFKNRDQRDR [R47D]	-0.84 ± 0.069
CFKERTRHLLREWYLQDPYPNPSKKRELAQATGLTPTQVGNWFKNRFQRDR [R47F]	-0.501 ± 0.22
CFKERTRHLLREWYLQDPYPNPSKKRELAQATGLFPTQVGNWFKNRRQRDR [T35F]	-0.773 ± 0.069
CFKERTRHLLREWYLQDPYPNPSKKRELAQATGLLPTQVGNWFKNRRQRDR [T35L]	-0.733 ± 0.075
CFKERTRHLLREWYLQDPYPNPSKKRELPQATGLTPTQVGNWFKNRRQRDR [A29P]	-0.916 ± 0.2
CFKERTRHLLREWYLQDPYPNPSMKRELAQATGLTPTQVGNWFKNRRQRDR [K24M]	-0.139 ± 0.084
CFKERTRHLLREWYLQDPYPNPSWKRELAQATGLTPTQVGNWFKNRRQRDR [K24W]	-0.556 ± 0.069
CFKERTRHLLREWYLQDPYPNPSCKRELAQATGLTPTQVGNWFKNRRQRDR [K24C]	-0.462 ± 0.14
CFKERTRHLLREWYLQDPFPNPSKKRELAQATGLTPTQVGNWFKNRRQRDR [Y19F]	-0.138 ± 0.068
CFKERTRHLLREWYLQDPQPNPSKKRELAQATGLTPTQVGNWFKNRRQRDR [Y19Q]	-0.414 ± 0.051
CFKERTRHLLREWYLQDPYPNCSKKRELAQATGLTPTQVGNWFKNRRQRDR [P22C]	0.146 ± 0.19
CFKERTRHLLRPWYLQDPYPNPSKKRELAQATGLTPTQVGNWFKNRRQRDR [E12P]	-1.01 ± 0.14
CFKERTRHLLREWYLQDPYPNPSKKRELAQATGLTPTQVGNWFKTRRQRDR [N45T]	-0.423 ± 0.11
CFKERTRHLLREWYLQDPYPNPSKKRELAQATGLTPTQVGNWFKQRRQRDR [N45Q]	-0.303 ± 0.06
CFKERTRHLLREWYLQDPYPNPSKKRELAKATGLTPTQVGNWFKNRRQRDR [Q30K]	-0.03 ± 0.1
CFKERTRHLLREWYLQDPYPNPSKKRELATATGLTPTQVGNWFKNRRQRDR [Q30T]	-0.051 ± 0.084
CFKERTRHLLREWYLQDPYPNPSKKRELAQATGLTPTIVGNWFKNRRQRDR [Q38I]	-0.702 ± 0.14
CFKERTRHLLREWYLQDPYPNPSKKRELAQATGLTPTHVGNWFKNRRQRDR [Q38H]	-0.878 ± 0.1
CFKERTRHLLREWYLQDPYPNPSKKRELAQATGLTPTPVGNWFKNRRQRDR [Q38P]	-0.9 ± 0.16
CFKERTRHLLREWYLQDPYPNPSKKRELAQATGLTPTWVGNWFKNRRQRDR [Q38W]	-0.742 ± 0.12
CFKERTRHLLREWYLQDPYPNPSKKRELAQATGLTPTQLGNWFKNRRQRDR [V39L]	-0.769 ± 0.053
CFKERTRHLLREWYLQDPYPNPSKKRELAQATGLTPTQWGNWFKNRRQRDR [V39W]	-0.896 ± 0.098
CFKERTRHLLREWYLQDPYPNPSKKRELAQATGLTPTQYGNWFKNRRQRDR [V39Y]	-0.646 ± 0.3
CFKERTRHLLREWYLQDPYPNPSKKRELAQATGLTPTQQGNWFKNRRQRDR [V39Q]	-0.455 ± 0.14
CFKERTRHLLREWYLQDPYPNPSKKRELAQATGLTPTQVGNWFKNERQRDR [R46E]	0.062 ± 0.089
